Reference: patent publication US20110286916A1 (published 2011)
Substitutions are numbered along the chain they refer to.

B1: hN1S3-088 (scFv, V domains shown)
VH: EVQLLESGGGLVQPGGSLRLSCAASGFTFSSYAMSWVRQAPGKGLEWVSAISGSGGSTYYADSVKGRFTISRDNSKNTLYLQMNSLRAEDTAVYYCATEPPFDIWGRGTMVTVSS
VL: QSVLTQPPSVSGTPGQRVTISCSGSSSNIGNDVVNWYQQLPGTAPKLLIYNDYQRPSGVSDRFSGSKSGTSAYLAISGLQSEDEADYHCAVWDDSLDGWVFGGGTKLTVL
notes: phage scFv
B2: hN1S3-112 (scFv, V domains shown)
VH: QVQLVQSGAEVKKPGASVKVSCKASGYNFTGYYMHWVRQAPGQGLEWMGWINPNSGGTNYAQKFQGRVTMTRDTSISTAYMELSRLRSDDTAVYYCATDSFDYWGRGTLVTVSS
VL: LPVLTQPPSASGTPGQRVTISCSGSSSNIGNNYVYWYQQLPGTAPKLLIYRNNQRPSGVPDRFSASKSGTSASLVISGIRSEDEAEYYCGGWDDSLSGQVVFGGGTKLTVL
notes: phage scFv
B3: hN1S3-007 (scFv, V domains shown)
VH: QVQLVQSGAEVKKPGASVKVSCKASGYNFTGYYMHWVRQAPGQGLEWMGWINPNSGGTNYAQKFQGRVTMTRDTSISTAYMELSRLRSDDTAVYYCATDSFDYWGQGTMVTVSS
VL: QAVLTQPSSVSGTPGQRVTMSCSGGRSNIGSNAVNWYQQFPGTAPKLLMYNTNQRPSGVPGRFSGSKSGASASLAISGLQSDDEADYYCSSWDDSLNGLEFGGGTKLTVL
notes: phage scFv
B4: N1wc266 (scFv, V domains shown)
VH: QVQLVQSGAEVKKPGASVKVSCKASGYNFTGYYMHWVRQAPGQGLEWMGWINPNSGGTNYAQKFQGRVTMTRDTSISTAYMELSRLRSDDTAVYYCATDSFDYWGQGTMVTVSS
VL: B3 VL with T108E, V109I, L110K
notes: phage scFv
B5: hN1S3-003 (scFv, V domains shown)
VH: EVQLVQSGPEVKKPGTSVKVSCKASGFTFTNSAVQWVRQARGQRLEWIGWIVVGSGNTNYAQKFQERVTITRDMSTSTAYMELSSLKSEDTAVYYCVADTVYWGQGTLVTVSS
VL: not shown
notes: phage scFv
B6: hN1S3-040 (scFv, V domains shown)
VH: B5 VH with N31S, K87R, Q105R, L108T
VL: QSVLTQPPSASGTPGQGVTISCSGSSSNIGRNSVNWYQQLPGTAPKLLIYGDNQRPSGVPDRFSGSKPGTSASLAISGLQSDDEAHYYCAAWDDSLNGWVFGGGTKVTVL
notes: phage scFv
B7: N1wc11 (scFv, V domains shown)
VH: B5 VH with T58I, Q105R, L108M
VL: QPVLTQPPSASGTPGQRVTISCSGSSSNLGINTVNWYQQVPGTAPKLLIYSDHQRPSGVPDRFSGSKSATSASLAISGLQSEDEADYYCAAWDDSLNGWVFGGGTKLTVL
notes: phage scFv
B8: hN1S3-002 (scFv, V domains shown)
VH: GVQLVQSGAEVKKPGASVKVSCKASGYTFTDYYVHWVRQAPGQGPEWMGWINPNNGGTKYAQKFQGRVTMTTDTSTSTAYMELRSLRSDDTALYYCARDLLPYYGDYRADKIDDFDIWGRGTLVTVSS
VL: QSVLTQPPSASGTPGQRVTISCSGSSSNIGSNTVNWYQRLPGAAPQLLIYNNDQRPSGIPDRFSGSKSGTSGSLVISGLQSEDEADYYCASWDDSLNGRVFGGGTKLTVL
notes: phage scFv
B9: hN1S3-030 (scFv, V domains shown)
VH: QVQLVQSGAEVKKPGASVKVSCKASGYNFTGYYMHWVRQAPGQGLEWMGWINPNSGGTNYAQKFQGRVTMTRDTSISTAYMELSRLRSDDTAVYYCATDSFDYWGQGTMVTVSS
VL: QSVLTQPPSASGTPGQRVSISCSGSSSNIGSNYVYWYQQLPGTAPKVLVYRNNQRPSGVSDRFSGSKYGTSASLAISGLRSEDEADYYCGSWDDSLSGVVFGGGTKVTVL
notes: phage scFv
B10: hN1S3-087 (scFv, V domains shown)
VH: QVQLVQSGAEVKKPGASVRISCKTSGFTFTSYFIHWVRQAPGQRPEWMGVINPSRGNADYAPRFRGRVTMTRDKSTHTVYMDLKSLRSDDAAIYYCARDRLGGLLDYYDSSDSSKNFDAFDFWGQGTLVTVSS
VL: NFMLTQPHSVSESPGKTVTISCTRSSGSIGSSYVQWYQQRPGTSPVTIIYEDSQRPSGVPDRFSGSIDNSANSASLTISGLKTEDEADYYCQSYDANNRVFGGGTKLTVL
notes: phage scFv
B11: N1wc624 (scFv, V domains shown)
VH: QVQLQQSGAEVKKPGASVKVSCKASGYNFTGYYMHWVRQAPGQGLEWMGWINPNSGGTNYAQKFQGRVTMTRDTSISTAYMELSRLGSDDTAVYYCATDSFDYWGRGTLVTVSS
VL: not shown
notes: phage scFv
B12: hN1S3-053 (scFv, V domains shown)
VH: B11 VH with Q1E, Q5V, G87R, L109T
VL: QAVLTQPSSVSGAPGQRVTISCTGSRSNIGAGYDVHWYQQLPGTAPKLLIYGNSNRPSGVPDRFSGSKSGTSASLAITGLQAEDEADYYCQSYDSSLSGSVFGGGTKLTVL
notes: phage scFv
B13: hN1S3-136 (scFv, V domains shown)
VH: B11 VH with Q6E, G87R, L109T
VL: QAVLTQPSSESGTPGQRVTISCSGTTSNIGDNTVTWYQQLPGTAPKLLIYSNTQRPSGVPARFSGSKSGTSASLAISGLQSGDEADYYCAAWDDSRNGYVFGTGTKLTVL
notes: phage scFv
B14: hN1S3-127 (scFv, V domains shown)
VH: B11 VH with Q1E, Q5V, G87R, R106Q
VL: QSVLTQPPSVSGAPGQRVTISCSGSTSNIGGNPVTWYQQFPGTAPKLLVYRDNQRPSGVADRFSGSRSGTSASLAISGLQSEDEADFYCASWDDSLGGVVFGGGTKLTVL
notes: phage scFv
B15: hN1S3-177 (scFv, V domains shown)
VH: B11 VH with Q1E, Q5V, T58A, G87R
VL: QAVLTQPSSASGTPGQRVTISCSGSSSNIGTNYVYWYQHLPGMAPKLLLYSNNQRPSGVPDRFSGSKSGPSASLAISGLRSEDEADYYCAAWDDSLSGLVFGGGTKLTVL
notes: phage scFv
B16: hN1S3-006 (scFv, V domains shown)
VH: B11 VH with Q5V, M34I, T69I, G87R
VL: QAVLTQPSSASGTAGQRVTISCSGSNSNIGSNTVNWYQQLPGTTPKLLIYSNNERPSGVPDRFSGSKSGTSASLAISGLQSDDEADYYCAAWDDSLNGYVFGTGTKVTVL
notes: phage scFv
B17: hN1S3-001 (scFv, V domains shown)
VH: B11 VH with Q1E, Q5V, G87R, R106Q, L109M
VL: not shown
notes: phage scFv
B18: hN1S3-055 (scFv, V domains shown)
VH: B11 VH with Q5V, L45P, G87R, L109M
VL: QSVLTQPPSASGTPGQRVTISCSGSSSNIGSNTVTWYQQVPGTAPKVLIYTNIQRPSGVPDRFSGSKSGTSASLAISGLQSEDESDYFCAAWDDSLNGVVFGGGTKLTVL
notes: phage scFv
B19: hN1S3-181 (scFv, V domains shown)
VH: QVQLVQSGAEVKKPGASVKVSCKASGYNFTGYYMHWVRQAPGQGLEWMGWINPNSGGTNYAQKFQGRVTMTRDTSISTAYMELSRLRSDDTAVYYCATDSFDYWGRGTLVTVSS
VL: SYVLTQPPSASGTPGQRVTISCSGSSPNIGSNTVNWYQQLPGTAPKLLIYTNNQRPSGVPDRFSGSKSATSASLAISGLQFDDEADYFCAAWDDSLLGVVFGGGTKVTVL
notes: phage scFv
B20: hN1S3-124 (scFv, V domains shown)
VH: B11 VH with Q1E, Q5V, G87R, L109T
VL: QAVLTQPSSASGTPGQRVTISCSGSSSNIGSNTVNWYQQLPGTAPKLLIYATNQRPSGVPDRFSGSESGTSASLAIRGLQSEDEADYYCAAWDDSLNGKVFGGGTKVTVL
notes: phage scFv
B21: hN1S3-023 (scFv, V domains shown)
VH: B11 VH with Q1E, Q5V, G87R, R106Q, L109M
VL: not shown
notes: phage scFv
B22: hN1S3-182 (scFv, V domains shown)
VH: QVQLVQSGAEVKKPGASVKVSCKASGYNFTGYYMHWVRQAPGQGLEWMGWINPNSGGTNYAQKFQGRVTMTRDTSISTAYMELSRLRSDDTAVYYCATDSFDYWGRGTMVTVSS
VL: B12 VL with R26S, A31S, G32P, H36N, L41F, S54I, S92T, S96T, S98N, S100A
notes: phage scFv
B23: hN1S3-036 (scFv, V domains shown)
VH: B11 VH with Q1E, Q5V, G87R, L109M
VL: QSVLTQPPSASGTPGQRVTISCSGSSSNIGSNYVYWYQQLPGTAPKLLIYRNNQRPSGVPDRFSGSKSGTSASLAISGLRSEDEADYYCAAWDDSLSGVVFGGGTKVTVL
notes: phage scFv
B24: N1wc633 (scFv, V domains shown)
VH: B11 VH with G87R
VL: QAVLTQPSSASGTPGQRVTISCSGSSSNIGSYTVNWYQQVPGTAPKLLIYSNNQRPSGVPERFSGSKSGTSASLAISGLQSEDEADYYCAAWDDSLSDVLFGGGTKVTVL
notes: phage scFv
B25: hN1S3-091 (scFv, V domains shown)
VH: B11 VH with Q1E, Q5V, G87R, R106Q, L109M
VL: QSVLTQPPSATGTPGQTVSISCSGGNSNIGSNYVSWYQQLPGTAPKLLIYSNNQRPSGVPDRFSGSKSGTSASLAISGLQSEDEADYYCAAWDDSLNGHIFGTGTKLTVL
notes: phage scFv
B26: hN1S3-095 (scFv, V domains shown)
VH: B11 VH with Q1E, Q5V, Q43R, G87R, R106Q
VL: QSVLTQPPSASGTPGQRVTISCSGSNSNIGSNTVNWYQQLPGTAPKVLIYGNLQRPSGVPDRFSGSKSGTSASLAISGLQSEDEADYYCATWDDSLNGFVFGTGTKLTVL
notes: phage scFv
B27: hN1S3-032 (scFv, V domains shown)
VH: B11 VH with Q1E, Q5V, G87R, R106K
VL: B12 VL with R26S, Q39R, I50L, S54D, T71A, Q81R, E83D, L108V
notes: phage scFv
B28: hN1S3-092 (scFv, V domains shown)
VH: B11 VH with Q1E, Q5V, G87R, R106Q
VL: B15 VL with A2S, S8P, T31A, H39Q, M43T, L49I, S51K, N53D, P70T, L107V
notes: phage scFv
B29: hN1S3-038 (scFv, V domains shown)
VH: B11 VH with Q1E, Q5V, T69I, G87T, L109T, S114R
VL: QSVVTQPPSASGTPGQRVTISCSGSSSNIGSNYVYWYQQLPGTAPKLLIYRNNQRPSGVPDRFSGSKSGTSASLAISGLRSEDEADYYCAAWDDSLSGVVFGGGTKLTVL
notes: phage scFv
B30: hN1S3-096 (scFv, V domains shown)
VH: B11 VH with Q1E, Q5V, G87R, L109T
VL: QPVLTQPPSASGTPGQRVTISCSGSSSNIASNSVYWYQQLPGTAPKLLIYRNNQRPSGVPDRFSGSQSGASASLAISGLRSEDEADYYCAAWDDNLYGVVFGGGTKLTVL
notes: phage scFv

Each binder was assayed against T1, human full-length Notch1 with C-terminal FLAG tag, stably expressed on 293 FlpIn (TREx) cells (human, UniProt P46531 19-2555) (assay: FACS, phage scFv).
T1 construct: tetracycline/doxycycline-induced expression from pcDNA5/FRT/TO-HN1+FLAG; also called hN1; 293_N1

Binder | binding result
B1 | binds
B2 | binds
B3 | binds
B4 | binds
B5 | binds
B6 | binds
B7 | binds
B8 | binds
B9 | binds
B10 | binds
B11 | binds
B12 | binds
B13 | binds
B14 | binds
B15 | binds
B16 | binds
B17 | binds
B18 | binds
B19 | binds
B20 | binds
B21 | binds
B22 | binds
B23 | binds
B24 | binds
B25 | binds
B26 | binds
B27 | binds
B28 | binds
B29 | binds
B30 | binds

These binders were tested against T2, human full-length Notch3 with C-terminal FLAG tag, stably expressed on 293 FlpIn (TREx) cells (human, UniProt Q9UM47 40-2321) (assay: FACS, phage scFv).
T2 construct: whole, on cells; made by the same strategy as the Notch1 line; also called 293-N3; hN3

Binder | binding result
B1 | binds
B2 | binds
B3 | binds
B4 | binds
B5 | binds
B6 | binds
B7 | binds
B8 | binds
B9 | binds
B10 | binds
B11 | binds
B12 | binds
B13 | binds
B14 | binds
B15 | binds
B16 | binds
B17 | binds
B18 | binds
B19 | binds
B20 | binds
B21 | binds
B22 | binds
B23 | binds
B24 | binds
B25 | binds
B26 | binds
B27 | binds
B28 | binds
B29 | binds
B30 | binds
